Experimental data taken from article PMC8822698, “Structural and biological insights into Klebsiella pneumoniae surface polysaccharide degradation by a bacteriophage K1 lyase: implications for clinical use” (Journal of Biomedical Science, 2022).

Target: the molecule itself
Experiment: AUC; sedimentation at 20 °C and 20,000 rpm; 25 mM Tris-HCl, 100 mM NaCl, pH 7.5; data analysed with SEDFIT

B1: K1 CPS-specific depolymerase K1 lyase of bacteriophage NTUH-K2044-K1-1 (enzyme, UniProt A0A068Q5Q5 1-651, looked up)
chain: MALIRLVAPERVFSDLASMVAYPNFQVQDKITLLGSAGGDFTFTTTASVVDNGTVFAVPGGYLLRKFVGPAYSSWFSNWTGIVTFMSAPNRHLVVDTVLQATSVLNIKSNSTLEFTDTGRILPDAAVARQVLNITGSAPSVFVPLAADAAAGSKVITVAAGALSAVKGTYLYLRSNKLCDGGPNTYGVKISQIRKVVGVSTSGGVTSIRLDKALHYNYYLSDAAEVGIPTMVENVTLVSPYINEFGYDDLNRFFTSGISANFAADLHIQDGVIIGNKRPGASDIEGRSAIKFNNCVDSTVKGTCFYNIGWYGVEVLGCSEDTEVHDIHAMDVRHAISLNWQSTADGDKWGEPIEFLGVNCEAYSTTQAGFDTHDIGKRVKFVRCVSYDSADDGFQARTNGVEYLNCRAYRAAMDGFASNTGVAFPIYRECLAYDNVRSGFNCSYGGGYVYDCEAHGSQNGVRINGGRVKGGRYTRNSSSHIFVTKDVAETAQTSLEIDGVSMRYDGTGRAVYFHGTVGIDPTLVSMSNNDMTGHGLFWALLSGYTVQPTPPRMSRNLLDDTGIRGVATLVAGEATVNARVRGNFGSVANSFKWVSEVKLTRLTFPSSAGALTVTSVAQNQDVPTPNPDLNSFVIRSSNAADVSQVAWEVYL
notes: K1 CPS-specific depolymerase (K1 lyase) encoded by orf34 of bacteriophage NTUH-K2044-K1-1, GenBank BAP15746, amino acids 1-651; Cloned into pET28a via NdeI and XhoI; This cloning would likely give an N-terminal His6 tag, but that is a surmise; also called K1 CPS depolymerase; polysaccharide depolymerase (PDP); source: E. coli BL21 (DE3), purified (nickel-chelating Sepharose, Superdex-200 gel …)
B1 was tested, and the “stoichiometry N” value was 3.
